Values quoted from earlier work as cited in paper PMC10249258.

Molecular target: CD155 (Homo sapiens) (UniProt P15151)

Kd: 2 nM
Substance: TIGIT (from UniProt Q495A1)
